Assay results published in the supplement of paper PMC9732359.
± gives the uncertainty stated by the source.

assay: protein stability index of a GFP-peptide fusion (yeast GPS) (PSI 1-4); higher = more stable; sorted into four equal gates, so the index is relative within each strain; conditions: pdr5∆
Method in brief: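 Yeast carrying a pooled library were grown to mid-log phase in leucine-free medium. Each library plasmid expresses Cherry and has a tiled 17-residue yeast protein peptide fused downstream of GFP. Cells were sorted into four equal gates by GFP/Cherry ratio, and plasmids from each gate were PCR-amplified, Illumina-sequenced and assigned to strains by barcode. Summing, across gates, the read frequency times the gate number gave each peptide's protein stability index.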

Sequence KPLGTTRAMEYLKFREL [RPB2] has a protein stability index of 2.86 ± 0.077.

same assay, conditions: san1∆

First: KCTAEGIKVSLLGIFDD [RPC25]
Second: KDLFELERYYKEQADIY [ARP7]
The protein stability index of the first is lower: 2.27 ± 0.099 for the first, 3.46 ± 0.12 for the second.

First: KDLQWLEFARITPMNDD [SIN4]
Second: KDQYVPEVSALDLSRSN [RPS17A]
The protein stability index of the first is higher: 3.14 ± 0.055 for the first, 2.02 ± 0.12 for the second.

KDTPFTIYDGEAVAKYI [PRE5] and KEASQEDDNNNVEKPSS [YLR335W/NUP2] are within error of each other in protein stability index: 3.13 ± 0.089 for the first, 3.06 ± 0.053 for the second.

Compared with KEDSTIQDSNGDVKNME [SWI3], KEEISDQKPIEHIKEGS [SWI3] is higher in protein stability index: 2.71 ± 0.093 for the first, 2.88 ± 0.063 for the second.

KEHEPCIIFMDEVDAIG [RPT4] and KEIKTNEYVIKTPVFTT [YMR129W/POM152] are within error of each other in protein stability index: 1.79 ± 0.12 for the first, 1.88 ± 0.084 for the second.

First: KEISARRYKLLTATPNS [POP1]
Second: KEKAPTIIFIDELDAIG [RPT5]
The protein stability index of the first is higher: 2.32 ± 0.06 for the first, 1.85 ± 0.11 for the second.

Going from KEKIEKLSKSATESIKN [SMC1] to KEKLTVQDCRYSLASVT [POP1], the protein stability index falls from 2.97 ± 0.079 to 2.35 ± 0.043.

First: KEPVALIETVRQMKDVN [RPN2]
Second: KERSIVVGRTTRSNPPF [REC8]
The protein stability index of the first is higher: 3.15 ± 0.051 for the first, 2.57 ± 0.081 for the second.

Going from KESIVLPTVGFDFIKDN [YOR098C/NUP1] to KESPWKILMYQYNIPPE [RRP6], the protein stability index falls from 3.05 ± 0.16 to 1.42 ± 0.11.

KETAPVIDTLAAGYGKI [RPL28] and KETWLHELSSSHTSLVK [SRB8] are within error of each other in protein stability index: 2.13 ± 0.21 for the first, 1.87 ± 0.083 for the second.

Going from KFLQVMQKHGYIGEFEY [RPS22A] to KFNAAPEENATEGPSDK [SNF12], the protein stability index rises from 2.11 ± 0.092 to 3.26 ± 0.081.

KFNELVKLMKNITDYET [BRR2] and KFQETLLRQKIEQCKHP [ISW2] are within error of each other in protein stability index: 1.21 ± 0.14 for the first, 1.24 ± 0.13 for the second.

Compared with KGAATGKGRQSAKAELE [PRE10], KGDLRRGFIKSEGSGSS [RPC53] is higher in protein stability index: 1.45 ± 0.29 for the first, 3.31 ± 0.07 for the second.

First: KGEEAKLDSKKTVPFQV [SSN3]
Second: KGEMKGSAITGPVGKEC [RPL23A]
The protein stability index of the first is higher: 3.2 ± 0.097 for the first, 3 ± 0.051 for the second.

KGKTPKNAAESSYMGKH [PRP28] and KGLIKVNGSPITLVEPE [RPS16A] are within error of each other in protein stability index: 2.86 ± 0.16 for the first, 3.06 ± 0.082 for the second.

First: KGLVSQQLDSFNQFVDY [RPB2]
Second: KHEEIDTKNLYVIKALQ [RPS10A]
The protein stability index of the first is higher: 2.41 ± 0.078 for the first, 1.64 ± 0.12 for the second.

KHLWDQKSLAALKKSRS [RPC17] and KIAHGTTTLAFRFQGGI [PRE2] are within error of each other in protein stability index: 2.92 ± 0.083 for the first, 2.84 ± 0.067 for the second.

Going from KIDKPIRTQVNTGGESV [RGR1] to KIDSHVVLSFSGLNADS [PRE6], the protein stability index rises from 2.32 ± 0.052 to 2.48 ± 0.073.

Compared with KIESLAGGGESDSALIL [UBP6], KIHQQLLFKARLQQQQA [GAL11] is lower in protein stability index: 3.49 ± 0.11 for the first, 1.25 ± 0.15 for the second.

Going from KIIELMNKIFTIFKSGE [YML103C/NUP188] to KILEQFEYVLYPSKTLK [FAS2], the protein stability index rises from 1.79 ± 0.11 to 2.97 ± 0.077.

First: KILPTDIQLKNLFPLKP [SRP68]
Second: KINSWDQVLVKGGEQIS [YJL041W/NSP1]
The protein stability index of the first is lower: 2.55 ± 0.043 for the first, 3.29 ± 0.087 for the second.

Compared with KIPAVEYFGGESPVDVQ [FAS1], KIRRAARDLLTRDEKDP [RPS9A] is lower in protein stability index: 3.19 ± 0.1 for the first, 2.3 ± 0.093 for the second.

Compared with KISEGSAKPTFSFSKSE [YOR098C/NUP1], KISFNLRLKLFLYEILS [SRB8] is lower in protein stability index: 2.11 ± 0.2 for the first, 1.24 ± 0.092 for the second.

First: KIVEIDRHIGCAMSGLT [PUP2]
Second: KIWSVKDGSNPRTLIGH [RPN14]
The protein stability index of the first is lower: 2 ± 0.14 for the first, 2.95 ± 0.14 for the second.

First: KKAEKAARKAEKAKSAG [RPL24A]
Second: KKAVKELYEVDVLKVNT [RPL25]
The protein stability index of the first is higher: 3.53 ± 0.046 for the first, 3.1 ± 0.037 for the second.

First: KKDSKPAFSFGISNGSE [YLR335W/NUP2]
Second: KKGESEKDASGKPSFVF [YOR098C/NUP1]
The protein stability index of the first is higher: 3.1 ± 0.044 for the first, 2.32 ± 0.15 for the second.

Going from KKINAKEKLIGWYHSGP [RPN8] to KKISSFKSLIDEDLLDT [YGL172W/NUP49], the protein stability index falls from 3.33 ± 0.052 to 3.12 ± 0.062.

KKLEITSDGALSVMCGC [RPR2] and KKRFDEFMAGFNIISMT [SMC4] are within error of each other in protein stability index: 2.8 ± 0.043 for the first, 2.87 ± 0.096 for the second.

KKSKNGTISKTGKKNKV [SRP14] and KKSKRLDKVGKKKGGKK [LRP1] are within error of each other in protein stability index: 3.14 ± 0.059 for the first, 2.99 ± 0.12 for the second.

First: KKTRIIPRHLQLAIRND [HTA1]
Second: KKVGITGKYGVRYGSSL [RPL43A]
The protein stability index of the first is lower: 3.03 ± 0.11 for the first, 3.3 ± 0.045 for the second.

First: KKYSSKNKYGEINSEDY [SRP68]
Second: KKYTQNNPLLLIVDVKQ [RPN8]
The protein stability index of the first is higher: 3.34 ± 0.066 for the first, 1.06 ± 0.14 for the second.

First: KLANFFSKKGNEPLSEI [YAR002W/NUP60]
Second: KLCYVLGVEDITLIDSA [RET1]
The protein stability index of the first is higher: 3.14 ± 0.067 for the first, 1.26 ± 0.27 for the second.

Going from KLEAEEIPSEDQNEFLL [FAS2] to KLELINRYAYVLSSLMF [LRP1], the protein stability index falls from 2.25 ± 0.11 to 1.94 ± 0.064.

Compared with KLEYPHTDVSSSLEARY [RPN3], KLISAFDDLEVEELPTF [RRP42] is lower in protein stability index: 2.75 ± 0.077 for the first, 2.5 ± 0.066 for the second.

Compared with KLKDSKKLFQKKENLTR [YML103C/NUP188], KLLDSGCENPADVFRRC [SRP72] is lower in protein stability index: 2.97 ± 0.11 for the first, 2.13 ± 0.1 for the second.

KLLKSLKNTKYFQQTTI [PRP8] and KLNDSQRKTVNSDDILS [POP1] are within error of each other in protein stability index: 2.34 ± 0.068 for the first, 2.38 ± 0.087 for the second.

Compared with KLNIETMRKISSETDDD [DSN1], KLNKVDKNELQQMIITR [SIR3] is higher in protein stability index: 2.77 ± 0.12 for the first, 3.28 ± 0.039 for the second.

First: KLPLSVINVSAQRDRRY [RPS17A]
Second: KLREKVNDVELAFKKNE [MTW1]
The protein stability index of the first is lower: 1.43 ± 0.23 for the first, 3 ± 0.15 for the second.

KLRETLVKIDDLSANQR [SMC1] and KLSESLDTRKELWRKEQ [SMC3] are within error of each other in protein stability index: 3.07 ± 0.11 for the first, 3.19 ± 0.19 for the second.

Going from KLTQKLVTAGVAAAGIT [CYT1] to KLVLAARIIAAIPNPED [RPS0A], the protein stability index falls from 2.56 ± 0.065 to 2.31 ± 0.099.

Going from KLYDKTENDIKALQSIG [RPT4] to KMDMICRNINRKHRNAQ [DIS3], the protein stability index rises from 1.87 ± 0.22 to 2.37 ± 0.086.

Going from KMEKKKSSSLSLESFMK [SNM1] to KMPGGFTITVARKYLQT [FAS2], the protein stability index falls from 2.93 ± 0.14 to 1.21 ± 0.084.

Compared with KNATDLQQAKLRESEIS [SMC3], KNDEVLGLLLPIAASTD [RPN1] is lower in protein stability index: 3.11 ± 0.085 for the first, 2.47 ± 0.063 for the second.

First: KNDTHYLLPDDFHFSTD [BRN1]
Second: KNDTKILVLALEDLKDV [PRP8]
The protein stability index of the first is higher: 2.9 ± 0.055 for the first, 1.55 ± 0.11 for the second.

Compared with KNEEAEIEVDEMEVDAE [RPN1], KNEETPQNEKPPAYALL [RPC25] is lower in protein stability index: 3.19 ± 0.12 for the first, 2.05 ± 0.14 for the second.

Compared with KNFENGPKKNVFYAPNV [RPC34], KNIAQCLSDYTKKISNF [YJL039C/NUP192] is lower in protein stability index: 2.66 ± 0.084 for the first, 2.02 ± 0.068 for the second.

Compared with KNISSQLDSKLMVFNDD [YGR119C/NUP57], KNLNPASSSPSSTDFST [ECM29] is higher in protein stability index: 2.24 ± 0.056 for the first, 2.97 ± 0.056 for the second.

KNMFEKKASKVTVDADI [ISW2] and KNSSQLLNEWSHNVDEL [RPN5] are within error of each other in protein stability index: 2.83 ± 0.055 for the first, 2.9 ± 0.045 for the second.

Going from KNSSVSSLMNGLGYVFE [SRB5] to KPHGLAARVDIGQIIFS [RPL10], the protein stability index falls from 2.4 ± 0.1 to 1.72 ± 0.082.

Compared with KPKNTKENLSKSSWRQE [SIR4], KPLGLDRYGNRYFWLDH [ITC1] is higher in protein stability index: 1.21 ± 0.1 for the first, 2.85 ± 0.056 for the second.

In the case of KPLGTTRAMEYLKFREL [RPB2], the protein stability index is reported as 3.13 ± 0.068.

same assay, conditions: ubr1∆

With KCTAEGIKVSLLGIFDD [RPC25] the protein stability index was 2.04 ± 0.061.
